T1: human TROP-2 (hTROP-2) endogenously expressed on the cell surface of human cancer cell lines (human, UniProt P09758 27-323)
T1 construct: also called TACSTD2; PK-59 cells
T1 sequence: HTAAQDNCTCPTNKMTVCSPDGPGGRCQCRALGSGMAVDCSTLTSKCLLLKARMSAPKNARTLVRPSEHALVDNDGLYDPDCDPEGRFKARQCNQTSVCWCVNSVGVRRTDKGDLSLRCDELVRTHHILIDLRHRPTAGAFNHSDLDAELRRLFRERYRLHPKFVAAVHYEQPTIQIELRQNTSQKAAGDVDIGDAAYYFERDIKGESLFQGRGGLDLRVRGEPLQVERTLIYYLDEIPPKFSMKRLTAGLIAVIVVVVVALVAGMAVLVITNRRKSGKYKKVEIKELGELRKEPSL

T2: mouse TROP-2 protein transiently expressed in CHO-K1 cells (mouse, UniProt Q8BGV3 25-317)
T2 construct: whole, on cells
T2 sequence (looked up): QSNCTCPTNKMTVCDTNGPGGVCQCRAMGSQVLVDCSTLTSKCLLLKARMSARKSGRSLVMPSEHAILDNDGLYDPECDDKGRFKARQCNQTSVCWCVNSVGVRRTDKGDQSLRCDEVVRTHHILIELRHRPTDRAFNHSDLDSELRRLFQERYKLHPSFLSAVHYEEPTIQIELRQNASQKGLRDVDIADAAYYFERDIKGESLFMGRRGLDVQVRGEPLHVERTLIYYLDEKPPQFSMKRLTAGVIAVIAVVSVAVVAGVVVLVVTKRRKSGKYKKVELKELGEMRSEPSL

T3: peptide No. 15 of Table 11 (SEQ ID NO: 223) (human)
T3 peptide: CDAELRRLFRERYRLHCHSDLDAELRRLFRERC

T4: peptide No. 21 of Table 11 (SEQ ID NO: 229) (human)
T4 peptide: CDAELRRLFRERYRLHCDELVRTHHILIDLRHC

T5: peptide No. 3 of Table 11 (SEQ ID NO: 211) (human)
T5 peptide: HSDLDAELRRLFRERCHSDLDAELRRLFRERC

T6: peptide No. 7 of Table 11 (SEQ ID NO: 215) (human)
T6 peptide: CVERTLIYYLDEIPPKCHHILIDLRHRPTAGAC

T7: peptide No. 23 of Table 11 (SEQ ID NO: 231) (human)
T7 peptide: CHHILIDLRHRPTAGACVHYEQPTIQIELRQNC

T8: peptide No. 8 of Table 11 (SEQ ID NO: 216) (human)
T8 peptide: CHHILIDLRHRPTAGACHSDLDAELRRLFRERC

T9: peptide No. 6 of Table 11 (SEQ ID NO: 214) (human)
T9 peptide: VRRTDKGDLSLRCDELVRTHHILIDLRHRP

T10: peptide No. 19 of Table 11 (SEQ ID NO: 227) (human)
T10 peptide: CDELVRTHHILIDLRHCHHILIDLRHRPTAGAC

T11: peptide No. 10 of Table 11 (SEQ ID NO: 218) (human)
T11 peptide: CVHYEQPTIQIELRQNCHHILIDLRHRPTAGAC

T12: peptide No. 11 of Table 11 (SEQ ID NO: 219) (human)
T12 peptide: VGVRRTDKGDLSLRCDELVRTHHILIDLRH

B1: anti-hTROP-2 monoclonal antibody clone K5-70 (antibody, mouse IgG2a, V domains shown)
VH: QVQLQQPGAELVRPGASVKLSCKASGYTFTIYWINWVKQRPGQGLEWIGNIYPSDSYTNYNQKFKDKATLTVDKSSSTAYMQLSSPTSEDSAVYYCTRTSMADYWGQGTTLTVSS
VL: DILLTQSPAILSVSPGERVSFSCRASQSIGTSIHWYQQRTNGSPRLLIKYASESISGIPSRFSGSGSGTDFTLSINSVESEDIADYYCQQSNSWPFTFGSGTKLEIK
notes: mouse IgG2a, hybridoma FERM BP-11251; also called K5-70 antibody; mouse K5-70 antibody
B2: anti-hTROP-2 monoclonal antibody clone T6-16 (antibody, mouse IgG2a, V domains shown)
VH: EVQLQQSGPELVKPGASVKISCKASGYTFTDYNMHWVKQSHGKNLEWIGYIYPYNGGTGYNQRFKSRATMTVDKSSSTAYMELRSLTSDDSAVYYCAREDYGSSPSYAMDYWGQGTSVIVSS
VL: DVVMTQTPLSLPVSLGDQASISCRSSQSLVHGNGNTYLHWYLQKPGQSPKLLIYKVSNRFSGVPDRFSGSGSGTDFTLKISRVEAEDLGVYFCSQTTHVPTFGSGTKLEIK
notes: mouse IgG2a, hybridoma FERM BP-11346; also called T6-16 antibody

Legend:
[1] = target: T1, human TROP-2 (hTROP-2) endogenously …; experiment: FACS on PK-59 cells, 0.1 µg antibody
Experimental: (§1) Cancer cells were removed from a culture dish by a trypsin treatment, and a cell suspension was then prepared (cell density: 2×10⁶ cells/mL). An anti-hTROP-2 monoclonal antibody (0.1 μg) was added to 100 μL of the cell suspension, and they were then reacted at 4° C. for 20 minutes. The reaction solution was washed with PBS, and it was then reacted with PE-labeled anti-mouse IgG (BD Biosciences Pharmingen) (0.1 μg) (at 4° C. for 30 minutes). Thereafter, the resultant was analyzed by FACSCalibur (Becton, Dickinson and Company).
(§2) Subsequently, the reactivity of the generated anti-hTROP-2 monoclonal antibodies with human cancer cell lines (in which an hTROP-2 protein was endogenously expressed on the cell surface) was examined by FACS analysis.

[2] = target: T2, mouse TROP-2 protein transiently …; experiment: FACS on CHO-K1 cells transiently expressing mouse TROP-2
From the text: Specifically, each of an expression vector (mouse TROP-2-pcDNA3.1(+), furnished by the Institute of Molecular and Cellular Biosciences, the University of Tokyo) comprising the full-length cDNA of a mouse TROP-2 gene (GenBank accession No. NM_020047, Y08830), and an expression vector (pcDNA3.1-hEpCAM-myc/His) comprising the full-length cDNA of a human TROP-1/EpCAM gene (GenBank accession No. NM_002354), was transiently introduced into CHO-K1 cells, using Lipofectamine2000 reagent (Invitrogen). Thereafter, 24 to 48 hours later, the cells were removed from a culture dish by treating them with trypsin, and a cell suspension was then prepared. The thus prepared cell suspension was successively reacted with the produced anti-hTROP-2 monoclonal antibody (0.1 μg) and with PE-labeled anti-mouse IgG, and it was then analyzed by FACSCalibur.

[3] = target: T1, human TROP-2 (hTROP-2) endogenously …; experiment: FACS on BxPC-3 cells, 0.1 µg antibody
Experimental: as §1, §2

[4] = target: T3, peptide No. 15 of Table 11 (SEQ ID NO: …); experiment: PEPSCAN/CLIPS peptide ELISA, antibody 1 µg/mL
Experimental: (§3) 5034 types of the synthesized peptides were covalently bound to PEPSCAN cards (455 peptides/card), and the binding of the synthesized peptides to antibodies was then analyzed by the ELISA method. […] After washing, the resultant was allowed to react with a 1000-fold diluted peroxidase-secondary antibody complex at 25° C. for 1 hour. After washing, a substrate solution (a solution containing 2,2′-azino-di-3-ethylbenzthiazoline sulfonate (ABTS) and 2 μL of 3% hydrogen peroxide solution) was added to the reaction solution, followed by a chromogenic reaction for 1 hour. The binding activity of the antibodies was quantified by photographing with a CCD camera and then performing an image analysis.

[5] = target: T4, peptide No. 21 of Table 11 (SEQ ID NO: …); experiment: PEPSCAN/CLIPS peptide ELISA, antibody 1 µg/mL
Experimental: as §3

[6] = target: T5, peptide No. 3 of Table 11 (SEQ ID NO: …); experiment: PEPSCAN/CLIPS peptide ELISA, antibody 1 µg/mL
Experimental: as §3

[7] = target: T6, peptide No. 7 of Table 11 (SEQ ID NO: …); experiment: PEPSCAN/CLIPS peptide ELISA, antibody 1 µg/mL
Experimental: as §3

[8] = target: T7, peptide No. 23 of Table 11 (SEQ ID NO: …); experiment: PEPSCAN/CLIPS peptide ELISA, antibody 1 µg/mL
Experimental: as §3

[9] = target: T8, peptide No. 8 of Table 11 (SEQ ID NO: …); experiment: PEPSCAN/CLIPS peptide ELISA, antibody 1 µg/mL
Experimental: as §3

[10] = target: T9, peptide No. 6 of Table 11 (SEQ ID NO: …); experiment: PEPSCAN/CLIPS peptide ELISA, antibody 1 µg/mL
Experimental: as §3

[11] = target: T10, peptide No. 19 of Table 11 (SEQ ID NO: …); experiment: PEPSCAN/CLIPS peptide ELISA, antibody 1 µg/mL
Experimental: as §3

[12] = target: T11, peptide No. 10 of Table 11 (SEQ ID NO: …); experiment: PEPSCAN/CLIPS peptide ELISA, antibody 1 µg/mL
Experimental: as §3

[13] = target: T12, peptide No. 11 of Table 11 (SEQ ID NO: …); experiment: PEPSCAN/CLIPS peptide ELISA, antibody 1 µg/mL
Experimental: as §3

Binder | mean fluorescence intensity, times that with PE-labeled anti-mouse IgG alone [1] [times] | binding result [2] | mean fluorescence intensity, times that with PE-labeled anti-mouse IgG alone [3] [times] | binding of 16-16 [4] | binding of 16-16 [5] | binding of 16-16 [6] | binding of 16-16 [7] | binding of 16-16 [8] | binding of 16-16 [9] | binding of 16-16 [10] | binding of 16-16 [11] | binding of 16-16 [12] | binding of 16-16 [13]
B1 | 44 | no binding (tested: 0.1 µg antibody) | 45 |  |  |  |  |  |  |  |  |  | 
B2 | 59 | no binding (tested: 0.1 µg antibody) | 25 | 566 | 527 | 714 | 626 | 524 | 620 | 670 | 534 | 602 | 601
